Results on one molecule are retold here after article doi:10.1101/2023.09.11.557288, “An explainable language model for antibody specificity prediction using curated influenza hemagglutinin antibodies” (bioRxiv, 2023).

Assay [1] deals with T1, H1N1 A/Solomon Islands/3/2006 (SI06) HA (Influenza A virus, A/Solomon …, UniProt A7Y8I1).
T1 construct: also called HA from H1N1 A/Solomon Island/3/2006
Description: BLI; His-tagged antigen at 0.5 uM loaded on anti-Penta-HIS (HIS1K) biosensors, Fab in solution; room temperature; 1x PBS pH 7.4, 0.01% BSA, 0.002% Tween 20; 1:1 binding model. To be noted: both partners purified. A general note: In BLI a coated tip is dipped into the sample, and binding shifts an interference pattern.

The target of another assay is T2, mini-HA #4900 (Influenza A virus H1N1, designed stem …, stabilised).
T2 construct: also called H1 stem-based construct; HA stem-based construct without the HA head domain; not shown: 6xHis, C-terminal, kept
The assay is described as above. Particulars: both partners purified.

B1: 310–18A5 Fab (Fab, V domains shown)
VH: QVQLMQSGTEVKKPGSSVRVSCKASGSTFNSDAISWVRQAPGQGLEWMGGILGMFRTVNYAQRFQGRVTITADELMSTAYMELSGLRFEDTAVYYCARGDGYKPNFLRYWGQGTLITVSS
VL: TLSLSPGERATLSCRASQSVSSTSLAWYQQKFGQAPRLLIYGASNRATGIPDRFSGSGSGTDFTLTISRLEPEDFAVYYCQQYGNSLTFGGGTKVEIK
A word on the Kd: it is a measure of binding affinity in units of concentration. Regarding B1, the Kd came to 200 pM in assay [1] and 1000 pM with mini-HA #4900.
